Assay results as given in patent US20200239579A1 (Genmab, published 2020).

T1: human PD-L2 (full length, on CHO cells) (human, UniProt Q9BQ51 20-273)
T1 construct: whole, on cells; also called CHO-PD-L2 cells
T1 sequence (looked up): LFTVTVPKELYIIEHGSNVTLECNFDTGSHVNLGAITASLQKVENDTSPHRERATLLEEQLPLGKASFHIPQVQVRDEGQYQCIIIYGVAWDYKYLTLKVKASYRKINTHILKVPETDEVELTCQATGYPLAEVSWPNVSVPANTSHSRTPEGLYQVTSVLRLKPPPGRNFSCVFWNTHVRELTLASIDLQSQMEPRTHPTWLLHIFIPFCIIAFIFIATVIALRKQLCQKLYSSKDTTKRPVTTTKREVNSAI


Columns and labels:
[1] = biological target: T2, human PD-L1 (full length, on cells) (human, UniProt Q9NZQ7 19-290); assay: cell-based or functional assay
[2] = biological target: T1, human PD-L2 (full length, on CHO cells); assay: flow cytometry on CHO cells expressing human PD-L2
Experimental: (§1) Cells (3-5×10⁴ cells/well) were incubated in polystyrene 96-well round-bottom plates (Greiner bio-one, cat. no. 650101) with serial dilutions of antibodies (range 0.0001 to 10 μg/mL in 5-fold dilution steps) in 50 μL PBS/0.1% BSA/0.02% azide (staining buffer) at 4° C. for 30 min.
(§2) After washing twice in staining buffer, cells were incubated in 50 μL secondary antibody at 4° C. for 30 min. As a secondary antibody, R-Phycoerythrin (PE)-conjugated goat-anti-human IgG F(ab′)₂ (Cat. no. 109-116-098, Jackson ImmunoResearch Laboratories, Inc., West Grove, Pa.) diluted 1:500 in staining buffer, was used for all experiments. Next, cells were washed twice in staining buffer, re-suspended in 20 μL staining buffer and analyzed on an iQue screener (Intellicyt Corporation, USA). Binding curves were analyzed using non-linear regression (sigmoidal dose-response with variable slope) using GraphPad Prism V75.04 software (GraphPad Software, San Diego, Calif., USA).
A PE-conjugated PD-L2 specific antibody (Mylteni, clone MIH18; cat. no. 130-098-651) was used as positive control.

PDLoneECDHisCtag [3] = biological target: T3, PDLoneECDHisCtag (human, UniProt Q9NZQ7 19-238); assay: BLI cross-block, second antibody on PDLoneECDHisCtag held by immobilised 511-LC33S; bold = blocking
T3 construct: Expressed in HEK-293F cells; theoretical molecular weight 29 kDa; also called recombinant human PD-L1 ECD; human PD-L1 (BLI); not shown: C-terminal His-tag; C-tag
Experimental: (§3) Antibody cross-block testing was performed using biolayer interferometry (BLI) on an Octet HTX instrument (ForteBio). Antibodies (20 μg/ml in 10 mM sodium acetate buffer pH 6.0 (ForteBio)) were immobilized on Amine-Reactive 2nd Generation (AR2G) biosensors (ForteBio) according to the instructions of the manufacturer. After a baseline (50 s) in Sample Diluent (ForteBio), biosensors containing immobilized antibodies were loaded for 500 s with PDLoneECDHisCtag (100 nM or 2.7 μg/ml), after which the association response of a second antibody (10 μg/ml) was followed for 500 s. Biosensors were regenerated by using 3 times 5 s alternating exposures to 10 mM glycine pH 2.5 and Sample Diluent. The experiment was repeated with a new set of second antibodies starting from the baseline step. Each biosensor was used 6 times. The experiment was performed at 30° C. using a shaker speed of 1000 rpm. Data was analyzed using Data Analysis Software v9.0.0.12 (ForteBio). The Y-axis was aligned to the association step and Savitzky-Golay filtering was applied. The average buffer response was subtracted from the association response of the second antibody in order to correct for the dissociation of PDLoneECDHisCtag from the immobilized antibody. The corrected association responses were plotted in a matrix format.

[4] = biological target: T2, human PD-L1 (full length, on cells); assay: flow cytometry on SK-MES-1 cells, PE anti-human IgG secondary, MFI (PE)
Experimental: as §1, §2

PDLoneECDHisCtag [5] = biological target: T3, PDLoneECDHisCtag; assay: BLI cross-block, second antibody on PDLoneECDHisCtag held by immobilised 421-LC91S; bold = blocking
Experimental: as §3

[6] = biological target: T2, human PD-L1 (full length, on cells); assay: cell-based or functional assay; remark: listed apart in the source
PDLoneECDHisCtag [7] = biological target: T3, PDLoneECDHisCtag; assay: BLI (Octet HTX); antibody on anti-human IgG Fc capture sensor, PDLoneECDHisCtag as analyte; 1:1 global fit
Experimental: In a first set of experiments, affinities for recombinant-expressed human PD-L1 protein were determined using Bio-layer interferometry (BLI) on an Octet HTX instrument (ForteBio). Anti-Human IgG Fc Capture (AHC) biosensors (ForteBio) were loaded for 900 s with antibodies (1 μg/ml). […] The experiment was carried out while shaking at 1000 rpm at 30° C. Data was analyzed with Data Analysis Software v9.0.0.12 (ForteBio) using the 1:1 model and a global full fit with 1000 s association time and 200 or 1000 s dissociation time. Data traces were corrected by subtraction of a buffer reference, the Y-axis was aligned to the last 10 s of the baseline, and interstep correction as well as Savitzky-Golay filtering was applied. Data traces with a response <0.05 nm were excluded from analysis. As default, the fit using 1000 s dissociation time was used.

PDLoneECDHisCtag [8] = biological target: T3, PDLoneECDHisCtag; assay: BLI cross-block, second antibody on PDLoneECDHisCtag held by immobilised 632; plain = non-blocking
Experimental: as §3

PDLoneECDHisCtag [9] = biological target: T3, PDLoneECDHisCtag; assay: BLI cross-block, second antibody on PDLoneECDHisCtag held by immobilised 547; bold = blocking
Experimental: as §3

[10] = biological target: T2, human PD-L1 (full length, on cells); assay: flow cytometry on MDA-MB-231 cells, PE anti-human IgG secondary, MFI (PE)
Experimental: as §1, §2

[11] = biological target: T4, cynomolgus monkey PD-L1 (full length, on CHO cells) (cynomolgus monkey (Macaca fascicularis), UniProt G7PSE7 19-290); assay: flow cytometry on CHO cells transfected with cynomolgus PD-L1, PE anti-human IgG secondary, MFI (PE)
T4 construct: whole, on cells; also called PDL1 Mf; cynomolgus PD-L1
Experimental: as §1, §2
Binding to CHO cells expressing cynomolgus PD-L1 was determined by flow cytometry using a method as described above.

T3 sequence (Q9NZQ7 19-238, form in doubt): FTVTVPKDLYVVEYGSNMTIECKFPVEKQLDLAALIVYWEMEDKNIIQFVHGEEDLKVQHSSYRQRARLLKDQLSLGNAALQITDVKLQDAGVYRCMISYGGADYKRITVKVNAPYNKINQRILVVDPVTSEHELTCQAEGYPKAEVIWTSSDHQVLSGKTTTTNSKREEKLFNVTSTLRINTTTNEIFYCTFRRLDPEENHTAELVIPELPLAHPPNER
T2 sequence (Q9NZQ7 19-290 limits assumed): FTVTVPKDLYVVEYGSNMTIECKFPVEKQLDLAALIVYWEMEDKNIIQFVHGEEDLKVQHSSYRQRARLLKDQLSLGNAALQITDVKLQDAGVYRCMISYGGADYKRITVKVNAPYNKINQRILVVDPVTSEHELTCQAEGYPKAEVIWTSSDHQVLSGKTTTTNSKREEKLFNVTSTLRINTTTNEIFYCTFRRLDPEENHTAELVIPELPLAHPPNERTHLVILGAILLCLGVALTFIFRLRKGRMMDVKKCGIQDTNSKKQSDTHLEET
T4 sequence (G7PSE7 entry or part of it): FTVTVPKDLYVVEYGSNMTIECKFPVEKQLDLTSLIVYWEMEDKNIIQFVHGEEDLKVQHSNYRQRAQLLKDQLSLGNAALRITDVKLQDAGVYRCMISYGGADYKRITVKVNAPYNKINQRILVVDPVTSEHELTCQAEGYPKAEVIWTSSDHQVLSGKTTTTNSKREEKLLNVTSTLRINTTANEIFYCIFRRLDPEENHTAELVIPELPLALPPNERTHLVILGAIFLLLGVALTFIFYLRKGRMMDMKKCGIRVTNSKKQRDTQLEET

Binder | EC50 (read off the curve) [1] | binding result [2] | association response of the second antibody (PDLoneECDHisCtag [3]) | EC50 (read off the curve) [4] | association response of the second antibody (PDLoneECDHisCtag [5]) | EC50 (read off the curve) [6] | Kd (PDLoneECDHisCtag [7]) | koff (PDLoneECDHisCtag [7]) | kon (PDLoneECDHisCtag [7]) | association response of the second antibody (PDLoneECDHisCtag [8]) | association response of the second antibody (PDLoneECDHisCtag [9]) | EC50 (read off the curve) [10] | EC50 (read off the curve) [11]
IgG1-511-LC33S-FEAR (antibody, V domains shown) VH: QVQLVQSGSELKKPGASVMVSCKASGYTFTSYVMNWVRQAPGQGLEWMGWINSYTGNPTSAQGFTGRFVFSFDTSVNTAYLQISSLKAEDTAVYYCARGYCTSTSCYLDYWGQGTLVTVSS VL: SYELTQPPSVSVSPGHTARITCSGDALPKKYASWFQQKSGQAPVLVIYEDSKRPSGIPERFSGSTSGTMATLTISGAQVEDETDYYCYSADTSGTHRVFGGGTKLTVLG | ~0.05 µg/mL | no binding | 0 nm | ~0.2 µg/mL |  |  |  |  |  |  |  |  | 
IgG1-338-FEAR (antibody, V domains shown) VH: EVQVVESGGGLVQPGGSLRLSCAASGFTFSRFWMSWVRQAPGKGLEWVANIKQDGGEKYYVDSVKGRFTISRDNAKNSLYLQMNSLRGEDTAVYYCARDDNWNGHFDYWGQGTLVTVSS VL: DIQMTQSPSTLSASVGDRVTITCRASQSISSWLAWYQQKPGKAPNLLIYKASSLESGVPSRFSGSGSGTEFTLTISSLQPDDFATYYCQQYYGSYITFGQGTRLEIKR |  | no binding | 0 nm | ~0.1 µg/mL | -0.1 nm | ~0.03 µg/mL | 0.088 nM | 6.4e-05 s⁻¹ | 730000 M⁻¹ s⁻¹ | 0.6 nm | 0 nm |  | 
IgG1-547-FEAR (antibody, V domains shown) VH: EVQLLEPGGGLVQPGGSLRLSCEASGSTFSTYAMSWVRQAPGKGLEWVSGFSGSGGFTFYADSVRGRFTISRDSSKNTLFLQMSSLRAEDTAVYYCAIPARGYNYGSFQHWGQGTLVTVSS VL: SYVLTQPPSVSVAPGQTARITCGGNNIGSKSVHWYQQKPGQAPVLVVYDDNDRPSGLPERFSGSNSGNTATLTISRVEAGDEADYYCQVWDSSSDHVVFGGGTKLTVLG |  | no binding |  | ~0.2 µg/mL | 0 nm |  | 0.029 nM | 3.6e-05 s⁻¹ | 1.2e+06 M⁻¹ s⁻¹ | 0.6 nm | 0 nm | ~0.03 µg/mL | ~0.05 µg/mL
